The nature of one data set: WB, cultured astrocytes. As to conditions: glycan lost; control: Ctrl astrocytes.
The nature of data set [1]: WB of total p65, cultured astrocytes. As to conditions: glycan lost; control: Ctrl astrocytes.
Data set [2] can be described thus: WB of cytoplasmic and nuclear fractions. The note with it: glycan lost; control: Ctrl astrocytes.
Another data set is described as follows: IP-WB in N2a cells. As to conditions: glycan lost; control: wild-type p65-HA.

B1: NF-κB p65: Ogt cKO (protein)
parent chain: MDDLFPLIFPSEPAQASGPYVEIIEQPKQRGMRFRYKCEGRSAGSIPGERSTDTTKTHPTIKINGYTGPGTVRISLVTKDPPHRPHPHELVGKDCRDGYYEADLCPDRSIHSFQNLGIQCVKKRDLEQAISQRIQTNNNPFHVPIEEQRGDYDLNAVRLCFQVTVRDPAGRPLLLTPVLSHPIFDNRAPNTAELKICRVNRNSGSCLGGDEIFLLCDKVQKEDIEVYFTGPGWEARGSFSQADVHRQVAIVFRTPPYADPSLQAPVRVSMQLRRPSDRELSEPMEFQYLPDTDDRHRIEEKRKRTYETFKSIMKKSPFNGPTEPRPPTRRIAVPTRNSTSVPKPAPQPYTFPASLSTINFDEFSPMLLPSGQISNQALALAPSSAPVLAQTMVPSSAMVPLAQPPAPAPVLTPGPPQSLSAPVPKSTQAGEGTLSEALLHLQFDADEDLGALLGNSTDPGVFTDLASVDNSEFQQLLNQGVSMSHSTAEPMLMEYPEAITRLVTGSQRPPDPAPTPLGTSGLPNGLSGDEDFSSIADMDFSALLSQISS
With B1, the “other: p65 phosphorylation (p-p65 level)” value in the data set “WB, cultured astrocytes” is reported as “increases”. For the same protein, in data set [1], the expression_or_secretion result is “no change”. Further, in data set [2], the localisation_or_trafficking result is listed as “changes”.

B2: NF-κB p65: S370A (protein)
parent chain: MDDLFPLIFPSEPAQASGPYVEIIEQPKQRGMRFRYKCEGRSAGSIPGERSTDTTKTHPTIKINGYTGPGTVRISLVTKDPPHRPHPHELVGKDCRDGYYEADLCPDRSIHSFQNLGIQCVKKRDLEQAISQRIQTNNNPFHVPIEEQRGDYDLNAVRLCFQVTVRDPAGRPLLLTPVLSHPIFDNRAPNTAELKICRVNRNSGSCLGGDEIFLLCDKVQKEDIEVYFTGPGWEARGSFSQADVHRQVAIVFRTPPYADPSLQAPVRVSMQLRRPSDRELSEPMEFQYLPDTDDRHRIEEKRKRTYETFKSIMKKSPFNGPTEPRPPTRRIAVPTRNSTSVPKPAPQPYTFPASLSTINFDEFSPMLLPSGQISNQALALAPSSAPVLAQTMVPSSAMVPLAQPPAPAPVLTPGPPQSLSAPVPKSTQAGEGTLSEALLHLQFDADEDLGALLGNSTDPGVFTDLASVDNSEFQQLLNQGVSMSHSTAEPMLMEYPEAITRLVTGSQRPPDPAPTPLGTSGLPNGLSGDEDFSSIADMDFSALLSQISS
Take B2: the “other: p65 phosphorylation (p-p65 level)” value in “IP-WB in N2a cells” is listed as “no change”.

B3: NF-κB p65: S384A (protein)
parent chain: MDDLFPLIFPSEPAQASGPYVEIIEQPKQRGMRFRYKCEGRSAGSIPGERSTDTTKTHPTIKINGYTGPGTVRISLVTKDPPHRPHPHELVGKDCRDGYYEADLCPDRSIHSFQNLGIQCVKKRDLEQAISQRIQTNNNPFHVPIEEQRGDYDLNAVRLCFQVTVRDPAGRPLLLTPVLSHPIFDNRAPNTAELKICRVNRNSGSCLGGDEIFLLCDKVQKEDIEVYFTGPGWEARGSFSQADVHRQVAIVFRTPPYADPSLQAPVRVSMQLRRPSDRELSEPMEFQYLPDTDDRHRIEEKRKRTYETFKSIMKKSPFNGPTEPRPPTRRIAVPTRNSTSVPKPAPQPYTFPASLSTINFDEFSPMLLPSGQISNQALALAPSSAPVLAQTMVPSSAMVPLAQPPAPAPVLTPGPPQSLSAPVPKSTQAGEGTLSEALLHLQFDADEDLGALLGNSTDPGVFTDLASVDNSEFQQLLNQGVSMSHSTAEPMLMEYPEAITRLVTGSQRPPDPAPTPLGTSGLPNGLSGDEDFSSIADMDFSALLSQISS
For B3, the “other: p65 phosphorylation (p-p65 level)” value in the data set “IP-WB in N2a cells” is “increases”.

B4: NF-κB p65: OE-Ogt (protein)
parent chain: MDDLFPLIFPSEPAQASGPYVEIIEQPKQRGMRFRYKCEGRSAGSIPGERSTDTTKTHPTIKINGYTGPGTVRISLVTKDPPHRPHPHELVGKDCRDGYYEADLCPDRSIHSFQNLGIQCVKKRDLEQAISQRIQTNNNPFHVPIEEQRGDYDLNAVRLCFQVTVRDPAGRPLLLTPVLSHPIFDNRAPNTAELKICRVNRNSGSCLGGDEIFLLCDKVQKEDIEVYFTGPGWEARGSFSQADVHRQVAIVFRTPPYADPSLQAPVRVSMQLRRPSDRELSEPMEFQYLPDTDDRHRIEEKRKRTYETFKSIMKKSPFNGPTEPRPPTRRIAVPTRNSTSVPKPAPQPYTFPASLSTINFDEFSPMLLPSGQISNQALALAPSSAPVLAQTMVPSSAMVPLAQPPAPAPVLTPGPPQSLSAPVPKSTQAGEGTLSEALLHLQFDADEDLGALLGNSTDPGVFTDLASVDNSEFQQLLNQGVSMSHSTAEPMLMEYPEAITRLVTGSQRPPDPAPTPLGTSGLPNGLSGDEDFSSIADMDFSALLSQISS
With B4, the “other: p65 phosphorylation (p-p65 level)” value in “HA IP-WB in N2a cells” (glycan gained, control: N2a cells without ectopic Ogt) is reported as “decreases”.

B5: NF-κB p65: Ogt KD (protein)
parent chain: MDDLFPLIFPSEPAQASGPYVEIIEQPKQRGMRFRYKCEGRSAGSIPGERSTDTTKTHPTIKINGYTGPGTVRISLVTKDPPHRPHPHELVGKDCRDGYYEADLCPDRSIHSFQNLGIQCVKKRDLEQAISQRIQTNNNPFHVPIEEQRGDYDLNAVRLCFQVTVRDPAGRPLLLTPVLSHPIFDNRAPNTAELKICRVNRNSGSCLGGDEIFLLCDKVQKEDIEVYFTGPGWEARGSFSQADVHRQVAIVFRTPPYADPSLQAPVRVSMQLRRPSDRELSEPMEFQYLPDTDDRHRIEEKRKRTYETFKSIMKKSPFNGPTEPRPPTRRIAVPTRNSTSVPKPAPQPYTFPASLSTINFDEFSPMLLPSGQISNQALALAPSSAPVLAQTMVPSSAMVPLAQPPAPAPVLTPGPPQSLSAPVPKSTQAGEGTLSEALLHLQFDADEDLGALLGNSTDPGVFTDLASVDNSEFQQLLNQGVSMSHSTAEPMLMEYPEAITRLVTGSQRPPDPAPTPLGTSGLPNGLSGDEDFSSIADMDFSALLSQISS
B5: in “HA IP-WB in N2a cells” (glycan lost, control: control N2a cells), the “other: p65 phosphorylation (p-p65 level)” value is on record as “increases”.

B6: NF-κB p65: S374A (protein)
parent chain: MDDLFPLIFPSEPAQASGPYVEIIEQPKQRGMRFRYKCEGRSAGSIPGERSTDTTKTHPTIKINGYTGPGTVRISLVTKDPPHRPHPHELVGKDCRDGYYEADLCPDRSIHSFQNLGIQCVKKRDLEQAISQRIQTNNNPFHVPIEEQRGDYDLNAVRLCFQVTVRDPAGRPLLLTPVLSHPIFDNRAPNTAELKICRVNRNSGSCLGGDEIFLLCDKVQKEDIEVYFTGPGWEARGSFSQADVHRQVAIVFRTPPYADPSLQAPVRVSMQLRRPSDRELSEPMEFQYLPDTDDRHRIEEKRKRTYETFKSIMKKSPFNGPTEPRPPTRRIAVPTRNSTSVPKPAPQPYTFPASLSTINFDEFSPMLLPSGQISNQALALAPSSAPVLAQTMVPSSAMVPLAQPPAPAPVLTPGPPQSLSAPVPKSTQAGEGTLSEALLHLQFDADEDLGALLGNSTDPGVFTDLASVDNSEFQQLLNQGVSMSHSTAEPMLMEYPEAITRLVTGSQRPPDPAPTPLGTSGLPNGLSGDEDFSSIADMDFSALLSQISS
Take B6: in the data set “IP-WB in N2a cells”, the “other: p65 phosphorylation (p-p65 level)” value is recorded as “no change”.

B7: NF-κB p65: S396A (protein)
parent chain: MDDLFPLIFPSEPAQASGPYVEIIEQPKQRGMRFRYKCEGRSAGSIPGERSTDTTKTHPTIKINGYTGPGTVRISLVTKDPPHRPHPHELVGKDCRDGYYEADLCPDRSIHSFQNLGIQCVKKRDLEQAISQRIQTNNNPFHVPIEEQRGDYDLNAVRLCFQVTVRDPAGRPLLLTPVLSHPIFDNRAPNTAELKICRVNRNSGSCLGGDEIFLLCDKVQKEDIEVYFTGPGWEARGSFSQADVHRQVAIVFRTPPYADPSLQAPVRVSMQLRRPSDRELSEPMEFQYLPDTDDRHRIEEKRKRTYETFKSIMKKSPFNGPTEPRPPTRRIAVPTRNSTSVPKPAPQPYTFPASLSTINFDEFSPMLLPSGQISNQALALAPSSAPVLAQTMVPSSAMVPLAQPPAPAPVLTPGPPQSLSAPVPKSTQAGEGTLSEALLHLQFDADEDLGALLGNSTDPGVFTDLASVDNSEFQQLLNQGVSMSHSTAEPMLMEYPEAITRLVTGSQRPPDPAPTPLGTSGLPNGLSGDEDFSSIADMDFSALLSQISS
Turning to B7, the “other: p65 phosphorylation (p-p65 level)” value in the data set “IP-WB in N2a cells” is recorded as “no change”.

The values are drawn from publication PMC10286367.
